Data on one molecule can be found in article PMC3904923, “Pivoting between Calmodulin Lobes Triggered by Calcium in the Kv7.2/Calmodulin Complex” (PLoS ONE, 2014).

Holding throughout (settings): both partners purified
Experiment [1] addresses T1, CaM C-lobe (residues 79–148) (human, UniProt P0DP23 80-149).
T1 construct: human calmodulin C-lobe, residues 79-148; cDNA from the group of Daniel L. Minor Jr; also called C-domain; CaM 79–148; source: produced as described previously [28], purified
The experiment can be described thus: other fluorescence titration; competition: 12.5 nM D-CaM mixed with helix A (65.6 nM) or helix B (42.6 nM), isolated lobe added incrementally; with Ca2+; one site Hill fit, Kd derived assuming 1:1 binding.

Experiment [2] concerns the target T2, CaM N-lobe (residues 1–78) (human, UniProt P0DP23 2-79).
T2 construct: human calmodulin N-lobe, residues 1-78; cDNA from the group of Daniel L. Minor Jr; also called N-domain; CaM 1–78; source: produced as described previously [28], purified
The description is as above.

Experiment [3] addresses T1, CaM C-lobe (residues 79–148). The experiment can be described thus: other fluorescence titration; competition: 12.5 nM D-CaM mixed with helix A (46.4 nM) or helix B (20.1 nM), isolated lobe added incrementally; no Ca2+; one site Hill fit, Kd derived assuming 1:1 binding.
Experiment [4] deals with T2, CaM N-lobe (residues 1–78). Described as above.
In experiment [5] the target is T3, dansylated calmodulin (rat, UniProt P0DP30 1-149, dansyl group covalently bound to CaM (position not given)).
T3 construct: calmodulin, rat brain, NM_017326; also called D-CaM; dansyl-CaM
The experiment can be described thus: other fluorescence titration; 12.5 nM D-CaM, ligand added incrementally, enhancement of dansyl emission; D-CaM binding buffer with 3.9 µM free Ca2+ (9.63 mM Ca2+, 2 mM Mg2+, 10 mM EGTA, pH 7.4); apparent affinity (EC50 of a Hill fit).

The target in experiment [6] is T3, dansylated calmodulin. The experiment can be described thus: other fluorescence titration; 12.5 nM D-CaM, ligand added incrementally, enhancement of dansyl emission; 25 mM Tris-HCl, 120 mM KCl, 5 mM NaCl, 2 mM MgCl2, 10 mM EGTA, pH 7.4; no free Ca2+; apparent affinity (EC50 of a Hill fit).

B1: Kv7.2 helix A (hA residues G310–T359) (domain or fragment, human, UniProt O43526 310-359, looked up)
chain: GILGSGFALKVQEQHRQKHFEKRRNPAAGLIQSAWRFYATNLSRTDLHST
notes: helix A of human Kv7.2 (KCNQ2) Y15065, residues G310-T359; also called segment A; source: E. coli BL21-DE3, purified (GSH sepharose)
A word on the Kd: it is the constant that tells how readily two partners part at equilibrium. High values mean lower affinity, low ones higher affinity. Broadly, the EC50 is the concentration that produces a half-maximal response. For the molecule B1, the Kd in experiment [1] came to 17 nM; in experiment [2], 267 nM; in experiment [3], 169 nM; in experiment [4] it was 530 nM. For the same molecule, the figures for the EC50 with dansylated calmodulin [5] and with dansylated calmodulin [6] were 65.6 nM and 46.4 nM, respectively.
